Key:
[1] = substrate: N=C(N)NCCC[C@H](N)C(=O)O; experiment: L-amino acid oxidase (LAAO) enzyme-coupled assay of purified escapin; assay type: biochemical, Aplysia californica; settings: other: horseradish peroxidase/o-dianisidine coupled assay, 0.1 M Tris-HCl pH 7.6, room temperature, O.D. 436 nm, Lineweaver-Burk plot
Description: (§1) Animals. Sea hares, Aplysia californica, were collected in California or provided by the NIH National Resource for Aplysia Facility (http://www.rsmas.miami.edu/groups/sea-hares/). They were maintained in aquaria containing recirculating, filtered, and aerated artificial sea water (Instant Ocean™: Aquarium Systems), and fed red alga (Gracilaria ferox). Ink gland processing. The ink glands were surgically removed from sea hares, gently squeezed in a Petri dish with the blunt end of a scalpel handle to release most of the ink secretion from the individual vesicles contained in the gland. The secretion was then pipetted to a microfuge tube and frozen at −80° C. until needed. Opaline gland processing. The opaline glands were surgically removed from sea hares, gently blotted dry on a Kimwipe® to remove seawater (since water causes opaline secretion to polymerize) and transferred to an ultracentrifuge tube. This was centrifuged at 30,000 g for 30 min at 4° C. (Beckman Optima TLX Ultracentrifuge). The pure opaline was then pipetted away from the gland tissue, transferred to a microfuge tube, and frozen at −80° C. until needed. Purification of proteins from purple ink. Proteins were isolated and purified using an ÄKTA 100 Automated FPLC (Amersham Pharmacia Biotech). A preparative grade Hi-Load Superdex 200 16/60 column (Pharmacia) or an in-house-packed Sephacryl 300 HR 26/60 column was used for initial size separation with fractions collected in an automated fraction collector. Fractions identified to have activity by bacterial assay were concentrated using a Biomax 5K NMWL membrane Ultrafree Centrifugal Filter Device (Millipore). Active fractions were further purified on a cation exchange Mono S column, and fractions were collected, assayed, concentrated, and frozen at −80° C. One purified protein of interest was named “escapin” and was bright yellow. Escapin's concentration was determined by Bradford assay using bovine serum albumen (BSA) as a standard. The molecular mass of purified escapin was determined by gel filtration using a Superose-6 10/30 column (Amersham Pharmacia Biotech) eluted with 50 mM potassium phosphate buffer (pH 7.2) containing 150 mM KCl at a flow rate of 0.5 ml/min. The molecular weight markers were BSA (67 kDa), ovalbumen (43 kDa), and chymotrypsinogen A (25 kDa). Protein sequencing. Aplysia californica ink was analyzed for protein content using sodium dodecyl sulfate polyacrylamide gel electrophoresis (SDS-PAGE) on 12% gels. […] This band was blotted from the polyacrylamide gel to a PVDF membrane using CAPS transfer buffer and determined by protein microsequencing and proteomic mass spectrometry (University of Massachusetts Medical School Proteomic Mass Spectrometry Lab: http://www.umassmed.edu/proteomic/leszyk). […]

[2] = substrate: NCCCC[C@H](N)C(=O)O; experiment: as above; assay type: biochemical, Aplysia californica; settings: other: horseradish peroxidase/o-dianisidine coupled assay, 0.1 M Tris-HCl pH 7.6, room temperature, O.D. 436 nm, Lineweaver-Burk plot
Description: as §1

B1: Aplysia californica escapin (L-amino acid oxidase), wild type purified from ink, SEQ ID NO:1 (Aplysia californica) (protein)
chain: DGVCRNRRQCNKEVCGSSYDVAIVGAGPGGANSAYMLRESGLDIAVFEYSDRVGGRLFTYQLPNTPDVNLEIGGMRFIEGAMHRLWKVISELGLTPKVFKEGFGKEGRQRFYLRGQSLTKKQVKSGDVPYDLSPEEKANQGRLVEYYLEKLTGLQLNGGPLKREVALKLTVPDGRFLYDLTFDEALDLVASPEGKEFARDTHVFTSEVTLDASAISIFDDHLGEDYYGSEIYTLEEGMSSVPQGLLQTFLDAAKSNEFFPNNHLKALRRRTNGQYVLYFEPTTSKDGQTTINYLEPLKVVCAQRVILAMPVYALRQLDWSQLRNDRATQAYRAVRPMPASKVFMTFDQPWWLQNERKSWVTKSDALFSQMYDWQKSEASGDYILIASYADGLKAQYLRELKNQGEDIPGSDPGYNQVTVPLKDAILEHLTEAYGVERDSIPEPVTAASQFWTDYPFGCGWITWRAGYHFDDVISTMRRPSLKDEVYVVGSDYSWGLISSWIEGALETSENVINDYFL
notes: a signal peptide cleavage site between 18 and 19 amino acid residues was predicted by SignalIP; from tissue; host or cells: ink (ink gland secretion) of Aplysia californica
Km [1]: 25 µM | Vmax [1]: 1.56 µM/s | Km [2]: 31 µM | Vmax [2]: 1.92 µM/s
